Test results reported in PMC3182218, “Obesity Risk Gene TMEM18 Encodes a Sequence-Specific DNA-Binding Protein” (PLoS ONE, 2011).

Target: the molecule itself
Assay: dimer-sized band on SDS-PAGE Western blot; TMEM18 purified from insect cells, bound to DNA-cellulose, washed and eluted with 0.5 M, 1 M and 2 M salt; anti-Flag Western blot; dimer form approx. 34 kDa against monomer form approx. 17 kDa

B1: TMEM18 produced in insect cells (N-terminal Flag-tag followed by eight histidines) (natural protein)
chain: not shown
notes: TMEM18, 140 amino acids; cloned into pK509.3 vector; Flag-tag first, then eight histidine repeats, then TMEM18; detected by anti-Flag Western blot; also called histidine and Flag-tagged TMEM18; source: Sf9 or Tn5 insect cells (baculovirus), purified (nuclear extract in dodecyl maltoside, Ni-sepharose); not shown: Flag, N-terminal, kept
B1: binds.
